Data on two molecules can be found in US20170275368A1 (Hoffmann-La Roche, published 2017).

Read-outs that look alike come from different tables or passages of the source.

The IC50 is the point on the concentration scale where inhibition reaches its midpoint. A low value points to inhibition by little substance. A word on the Kd: it is the concentration at which binding is half-saturated. Broadly, the koff is the first-order rate constant of dissociation. Lower therefore signals a long-lived complex. The term kon denotes the second-order rate constant of association.

Test [1] addresses huCSF-1R-huFc chimera (soluble extracellular domain) (human) (UniProt P07333). As to the kind of experiment: competition ELISA: inhibition of CSF-1 binding to immobilised huCSF-1R-huFc chimera. A general note: In an ELISA, binding on a coated surface is turned into a signal by an enzyme label.
The target in test [2] is CSF-1R ECD (R&D-Systems 329-MR or in-house subcloned pCMV-presS-HisAvitag-hCSF-1R-ECD) (human) (UniProt P07333). Briefly: SPR (BIACORE A100) at 35 C; antibody captured, CSF-1R ECD in solution; Langmuir 1:1.
Chain of CSF-1R ECD (R&D-Systems 329-MR or in-house subcloned pCMV-presS-HisAvitag-hCSF-1R-ECD) (human) (P07333 20-517 limits assumed): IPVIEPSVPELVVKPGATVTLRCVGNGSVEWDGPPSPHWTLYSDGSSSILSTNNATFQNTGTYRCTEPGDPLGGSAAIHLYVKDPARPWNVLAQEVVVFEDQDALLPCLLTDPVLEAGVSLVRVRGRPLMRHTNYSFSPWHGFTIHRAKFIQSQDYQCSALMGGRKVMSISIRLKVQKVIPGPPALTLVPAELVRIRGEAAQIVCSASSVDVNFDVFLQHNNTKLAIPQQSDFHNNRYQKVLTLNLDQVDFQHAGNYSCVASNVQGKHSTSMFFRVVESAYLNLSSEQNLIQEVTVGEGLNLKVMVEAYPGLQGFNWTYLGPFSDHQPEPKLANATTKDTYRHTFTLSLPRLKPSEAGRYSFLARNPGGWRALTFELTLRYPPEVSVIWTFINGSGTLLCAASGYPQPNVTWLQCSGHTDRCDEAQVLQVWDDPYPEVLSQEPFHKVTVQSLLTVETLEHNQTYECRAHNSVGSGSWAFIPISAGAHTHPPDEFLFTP
In test [3] the target is CSF-1R (R&D-Systems Cat. No. 329-MR) (human) (UniProt P07333). Briefly: SPR cross-competition at 25 C; response of Antibody 2 on CSF-1R held by captured Antibody 1; competitor <CSF-1R>7G5.3B6 (Antibody 1).
Chain of CSF-1R (R&D-Systems Cat. No. 329-MR) (human) (P07333 20-517 limits assumed): as above
The target is the same in test [4]. Briefly: SPR cross-competition at 25 C; response of Antibody 2 on CSF-1R held by captured Antibody 1; competitor SC-02, clone 2-4A5 (Antibody 1, same antibody).
The target in test [5] is T1, full-length wildtype CSF-1R (wt CSF-1R) (human, UniProt P07333 20-972). As to the kind of experiment: cell-based or functional assay.
T1 sequence (P07333 20-972 limits assumed): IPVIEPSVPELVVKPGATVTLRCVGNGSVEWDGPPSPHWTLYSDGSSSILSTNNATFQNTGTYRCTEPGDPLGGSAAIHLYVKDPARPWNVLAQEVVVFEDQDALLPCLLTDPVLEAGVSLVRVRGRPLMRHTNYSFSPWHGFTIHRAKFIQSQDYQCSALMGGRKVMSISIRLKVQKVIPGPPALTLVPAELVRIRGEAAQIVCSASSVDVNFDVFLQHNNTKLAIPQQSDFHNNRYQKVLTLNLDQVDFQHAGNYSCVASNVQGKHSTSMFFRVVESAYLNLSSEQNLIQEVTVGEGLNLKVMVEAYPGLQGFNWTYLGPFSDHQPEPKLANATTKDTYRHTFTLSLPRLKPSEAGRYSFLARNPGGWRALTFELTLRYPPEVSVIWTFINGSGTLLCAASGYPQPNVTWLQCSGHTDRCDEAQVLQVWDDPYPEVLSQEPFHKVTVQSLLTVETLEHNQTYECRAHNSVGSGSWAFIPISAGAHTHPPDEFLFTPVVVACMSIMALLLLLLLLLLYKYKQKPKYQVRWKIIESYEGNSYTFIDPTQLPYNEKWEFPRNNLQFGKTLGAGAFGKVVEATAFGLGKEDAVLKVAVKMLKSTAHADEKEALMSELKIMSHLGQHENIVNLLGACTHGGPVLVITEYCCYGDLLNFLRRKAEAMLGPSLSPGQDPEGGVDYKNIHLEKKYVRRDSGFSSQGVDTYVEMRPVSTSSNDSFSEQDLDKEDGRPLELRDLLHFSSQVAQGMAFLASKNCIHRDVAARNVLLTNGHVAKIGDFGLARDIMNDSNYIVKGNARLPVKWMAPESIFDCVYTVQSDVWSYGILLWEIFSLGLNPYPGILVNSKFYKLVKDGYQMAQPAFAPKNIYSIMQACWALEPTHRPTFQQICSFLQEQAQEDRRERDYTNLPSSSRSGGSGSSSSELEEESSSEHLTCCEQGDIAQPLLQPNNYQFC
The target of test [6] is mutant CSF-1R L301S Y969F (human) (UniProt P07333). Briefly: cell-based or functional assay.
Chain of mutant CSF-1R L301S Y969F (human) (P07333 20-972 L301S/Y969F limits assumed): as the sequence (P07333 20-972 limits assumed) above, with L282S, Y950F counted along it
In test [7] the target is T2, huCSF-1R-huFc chimera (soluble extracellular domain) (human, UniProt P07333 20-517).
T2 construct: also called huCSF-1R ECDhuFc chimera; not shown: human Fc part
T2 sequence (P07333 20-517, change not shown): as the sequence (P07333 20-517 limits assumed) above
Briefly: competition ELISA: inhibition of CSF-1 binding to immobilised huCSF-1R-huFc chimera. As to the method: At the beginning, plates were coated with […] goat F(ab′)₂ biotinylated anti Fcγ (Jackson ImmunoResearch., Cat. No. 109-006-170) for 1 hour (h).
Thereafter the wells were blocked with PBS supplemented with 0.2% TWEEN®-20 and 2% BSA (Roche Diagnostics GmbH, DE) for 0.5 h. 75 ng/ml of huCSF-1R-huFc chimera (soluble extracellular domain) was immobilized to plate for 1 h. Then dilutions of purified antibodies in PBS/0.05% Tween20/0.5% BSA were incubated for 1 h. After adding a mixture of 3 ng/ml CSF-1 (Biomol, DE, Cat. No. 60530), 50 ng/ml biotinylated anti CSF-1 clone BAF216 (R&D Systems, UK) and 1:5000 diluted streptavidin HRP (Roche Diagnostics GmbH, DE, Cat. No. 11089153001) for 1 h the plates were washed 6 times with PBST. Anti CSF-IR SC-02, clone 2-4A5 (Santa Cruz Biotechnology, ITS), which inhibits the ligand-receptor interaction, was used as positive control. Plates were developed with freshly prepared BM BLUE® POD substrate solution (BM BLUE®: 3,3′-5,5′-Tetramethylbenzidine, Roche Diagnostics GmbH, DE, Cat. No. 11484281001) for 30 minutes at RT. Absorbance was measured at 370 nm. […] Anti CSF-1R SC-02, clone 2-4A5 (Santa Cruz Biotechnology, US), which inhibits the ligand-receptor interaction, was used as reference control.

Test [8] deals with CSF-1R ECD (R&D-Systems 329-MR or in-house subcloned pCMV-presS-HisAvitag-hCSF-1R-ECD) (human, UniProt P07333 20-517). As to the kind of experiment: SPR (BIACORE A100) at 35 C; antibody captured by anti mouse Fc gamma, CSF-1R ECD in solution; Langmuir 1:1. The procedure:
CSF-1R ECD (R&D-Systems 329-MR or in-house subcloned pCMV-presS-HisAvitag-hCSF-1R-ECD were added in various concentrations in solution. Association was measured by an CSF-1R-injection of 1.5 minutes at 35° C.; dissociation was measured by washing the chip surface with buffer for 10 minutes at 35° C. Anti CSF-IR SC-02, clone 2-4A5 (Santa Cruz Biotechnology, US; see also Sherr, C. J., et al., Cell 41 (1985) 665-676), which inhibits the ligand-receptor interaction, was used as reference control.
(In SPR one partner is held on a chip, and binding of the other changes the refractive index at the surface.)

Test [9] deals with T1, full-length wildtype CSF-1R (wt CSF-1R). Briefly: cell-based or functional assay. This is another data set of the same source.
Test [10] has the same target. As to the kind of experiment: cell-based or functional assay. The source holds these as a separate data set.

Chain of CSF-1R ECD (R&D-Systems 329-MR or in-house subcloned pCMV-presS-HisAvitag-hCSF-1R-ECD) (P07333 20-517 limits assumed): as above
Chain of huCSF-1R-huFc chimera (soluble extracellular domain) (human) (P07333 20-517, change not shown): as the sequence (P07333 20-517 limits assumed) above

In the case of “Anti CSF-1R SC-02, clone 2-4A5 (Santa Cruz Biotechnology) (antibody)”, the IC50 in [1] was determined as 0.0309 µg/mL. For the same molecule, in test [2], the Kd is 2.73 nM, the koff turned out to be 0.00139 s⁻¹, the kon stood at 509000 M⁻¹ s⁻¹ and the t1/2 was found to be 8.31 min. Further, the percentage (%) of expected binding response in test [3] turned out to be 36%. In addition, in test [4], the percentage (%) of expected binding response is -2%. In test [5], this molecule displayed a % inhibition of CSF-1 induced growth of BeWo tumor cells, 10 ug/ml antibody concentration of 40%; a % survival of NIH3T3 cells expressing wt CSF-1R, 10 ug/ml antibody (…-GLO) of 62%; an IC50 CSF-1R Phosphorylation of 0.412 µg/mL; an IC50 [nM] of inhibition of monocyte survival (…-GLO) of 2.4 nM. For the same molecule, the % survival of NIH3T3 cells expressing mutant CSF-1R L301S Y969F, 10 ug/ml antibody (…-GLO) in [6] is 66%.

B1: <CSF-1R>7G5.3B6 (antibody, V domains shown)
VH: EIQLQQSGPELVKPGASVRVSCKPSGYSFTDYNMYWVRQSHGKSLDWIGYIDPYNGGTTYNQKFRGKATLTVDKSSSTAFMHLNSLTSEDSAVYYCARGGDEYYFDYWGQGTTLTVSS
VL: DIVMSQSPSSLAVSVGEKVTMSCKSSQSLLDSRNQKNYLAWYQQKPGQSPKLLIYWASTRESGVPDRFTGSGSGTDFTLTISSVKAEDLAVYYCQQYYSYPPTFGGGTKLEIKR
notes: Mouse monoclonal antibody from hybridoma DSM ACC2921 (NMRI mice), tested as purified hybridoma antibody; also called deposited antibody DSM ACC2921
In turn, B1 had an IC50 in [7] of 0.0188 µg/mL. Further, in [8], the Kd is 0.61 nM, the koff was 0.0049 s⁻¹, the kon worked out at 8e+06 M⁻¹ s⁻¹ and the “t1/2” value is 2.37 min. Further, in test [9], the “IC50 CSF-1R Phosphorylation” value is < 0.011 µg/mL. For the same molecule, the “IC50 [nM] of inhibition of monocyte survival (…-GLO)” value in [10] is 0.4 nM.
